From patent US20050226863A1 (MIT, published 2005)

Experiments:
[1] = biological target: T1, peptide consisting of the first 20 amino acids of htt, MATLEKLMKAFESLKSFQQQ-biotin (C-terminal biotin); assay: yeast surface display, flow cytometry
T1 construct: Synthesized to contain three glutamines; also called huntingtin peptide; huntingtin peptide antigen
T1 peptide: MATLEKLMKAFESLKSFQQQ
Description: (§1) Both intrabodies are equally capable of partially blocking aggregation when overexpressed at high levels. *** p<0.001. FIG. 24D is a schematic homology model that includes mutations obtained during engineering; model contains residues present before mutagenesis. Mutations observed after mutagenesis and sorting were F371, Y51D, K67R, and A75T.
(§2) Yeast surface display. […] Yeast surface display labeling experiments to measure expression and binding were conducted as previously described (Boder, E. T. et al., Methods Enzymol 328: 430-444, 2000). A peptide consisting of the first 20 amino acids of htt was used as the antigen ([…]-biotin (SEQ ID NO:9), synthesized by the MIT biopolymers lab). The antigen was synthesized to contain three glutamines because the beginning of the polyglutamine region would be an ideal target for interfering with the misfolding of htt exon I. Affinity maturation of VL,C22V,C89A relied upon protocols previously described (Colby, D. W. et al., Methods Enzymol 388: 348-358, 2004). Briefly, the VL,C22V,C89A gene was used as the template for the creation of a library of point mutants through error-prone PCR using nucleotide analogues. […]

httex1Q97-GFP, P42858 = assay: cell-based or functional assay
[2] = biological target: T1, peptide consisting of the first 20 …; assay: titration of yeast surface displayed intrabody with biotinylated peptide, flow cytometry; Example 4 text's estimate from FIG. 24B
From the text: A peptide consisting of the first 20 amino acids of htt was used as the antigen ([…]-biotin (SEQ ID NO:9), synthesized by the MIT biopolymers lab). The antigen was synthesized to contain three glutamines because the beginning of the polyglutamine region would be an ideal target for interfering with the misfolding of htt exon I. Affinity maturation of VL,C22V,C89A relied upon protocols previously described (Colby, D. W. et al., Methods Enzymol 388: 348-358, 2004). Briefly, the VL,C22V,C89A gene was used as the template for the creation of a library of point mutants through error-prone PCR using nucleotide analogues. The resulting PCR products were amplified and transformed into yeast along with digested pCTCON (a yeast surface display vector) to create a library through homologous recombination (Raymond, C. K. et al., Biotechniques 26: 134-138, 140-141, 1999). […] These mutants were then used as the template in the next round of library generation. The entire process, from library generation to isolation of improved mutants, was repeated three times to yield VL12.3. FACS sorting was performed using a Cytomation Moflo FACS machine by the staff of the MIT Flow cytometry core facility. All constructs and clones were sequenced at the MIT biopolymers lab.
Intrabody lacking disulflde bond engineered for high affinity by directed evolution. […]

[3] = biological target: T1, peptide consisting of the first 20 …; assay: antigen binding curves of yeast surface displayed VL mutants, flow cytometry; figure legend's estimate from FIG. 24B
Description: as §1, §2

[4] = biological target: T1, peptide consisting of the first 20 …; assay: yeast surface display, flow cytometry with huntingtin peptide (method not restated in the sentence)
Description: as §1, §2

[5] = biological target: T1, peptide consisting of the first 20 …; assay: titration of yeast surface displayed intrabody with biotinylated peptide, flow cytometry
Description: as §1, §2

[6] = biological target: T1, peptide consisting of the first 20 …; assay: yeast surface display titration
Description: as §1, §2

[7] = biological target: T1, peptide consisting of the first 20 …; assay: yeast surface display, flow cytometry with huntingtin peptide
Description: as §1, §2

B1: engineered (affinity matured) disulfide-free SDIb of Examples 1 and 3 (other)
VL: SRPVLTQSPSVSAAPRQRVTISVSGSNSNIGSNTVNWIQQLPGRAPELLMYDDDLLAPGVSDRFSGSRSGTSASLTISGLQSEDEADYYAATWDDSLNDWVFGGGTKVTVLS
notes: expressed in yeast cytoplasm for the aggregation assay (construct not described); also called engineered SDIb
Kd [1]: ~10 nM

B2: VL12.3 (other)
VL: MGSQPVLTQSPSVSAAPRQRVTISVSGSNSNIGSNTVNWIQQLPGRAPELLMYDDDLLAPGVSDRFSGSRSGTSASLTISGLQSEDEADYYAATWDDSLNGWVFGGGTKVTVLSGHHHHHH
notes: It carries N-terminal MGS and C-terminal GHHHHHH, which is the his6 intrabody form; also called engineered intrabody VL12.3; Ad-VL12.3 (adenovirus carrying the gene)
formation of aggregates in ST14A cells, 1:1 intrabody:htt plasmid ratio (httex1Q97-GFP, P42858): 80 % reduction
formation of aggregates in ST14A cells, higher intrabody:htt plasmid ratios (httex1Q97-GFP, P42858): > 90 % reduction
Kd [2]: ~5 nM
Kd [3]: ~3 nM

B3: VL (anti-huntingtin single-domain antibody, variable light chain only), yeast-surface displayed (other)
VL: QPVLTQSPSVSAAPRQRVTISCSGSNSNIGSNTVNWFQQLPGRAPELLMYYDDLLAPGVSDRFSGSKSGTSASLAISGLQSEDEADYYCATWDDSLNGWVFGGGTKVTVLS
notes: Single human VL domain with its disulfide bond; also called SDAb; SDIb
Kd [4]: 30 to 50 nM
Kd [5]: ~30 nM

B4: VL,C22V,C89A (disulfide-free VL), yeast-surface displayed (other)
VL: QPVLTQSPSVSAAPRQRVTISVSGSNSNIGSNTVNWFQQLPGRAPELLMYYDDLLAPGVSDRFSGSKSGTSASLAISGLQSEDEADYYAATWDDSLNGWVFGGGTKVTVLS
notes: also called disulfide-free antibody; disulfide knock-out
fold difference in affinity against VL [6]: ~1000 fold
Kd [5]: > 10000 nM
fold decrease in affinity against the SDAb with its disulfide bond [7]: ~100 fold
